Biological target: T1, AR nuclear translocation (Homo sapiens, UniProt P10275, DEL79-80/DUP473-473)
T1 construct: expressed in transfected cells; host or cells: COS-1
T1 sequence (P10275 with tags, fused parts or gaps DEL79-80/DUP473-473): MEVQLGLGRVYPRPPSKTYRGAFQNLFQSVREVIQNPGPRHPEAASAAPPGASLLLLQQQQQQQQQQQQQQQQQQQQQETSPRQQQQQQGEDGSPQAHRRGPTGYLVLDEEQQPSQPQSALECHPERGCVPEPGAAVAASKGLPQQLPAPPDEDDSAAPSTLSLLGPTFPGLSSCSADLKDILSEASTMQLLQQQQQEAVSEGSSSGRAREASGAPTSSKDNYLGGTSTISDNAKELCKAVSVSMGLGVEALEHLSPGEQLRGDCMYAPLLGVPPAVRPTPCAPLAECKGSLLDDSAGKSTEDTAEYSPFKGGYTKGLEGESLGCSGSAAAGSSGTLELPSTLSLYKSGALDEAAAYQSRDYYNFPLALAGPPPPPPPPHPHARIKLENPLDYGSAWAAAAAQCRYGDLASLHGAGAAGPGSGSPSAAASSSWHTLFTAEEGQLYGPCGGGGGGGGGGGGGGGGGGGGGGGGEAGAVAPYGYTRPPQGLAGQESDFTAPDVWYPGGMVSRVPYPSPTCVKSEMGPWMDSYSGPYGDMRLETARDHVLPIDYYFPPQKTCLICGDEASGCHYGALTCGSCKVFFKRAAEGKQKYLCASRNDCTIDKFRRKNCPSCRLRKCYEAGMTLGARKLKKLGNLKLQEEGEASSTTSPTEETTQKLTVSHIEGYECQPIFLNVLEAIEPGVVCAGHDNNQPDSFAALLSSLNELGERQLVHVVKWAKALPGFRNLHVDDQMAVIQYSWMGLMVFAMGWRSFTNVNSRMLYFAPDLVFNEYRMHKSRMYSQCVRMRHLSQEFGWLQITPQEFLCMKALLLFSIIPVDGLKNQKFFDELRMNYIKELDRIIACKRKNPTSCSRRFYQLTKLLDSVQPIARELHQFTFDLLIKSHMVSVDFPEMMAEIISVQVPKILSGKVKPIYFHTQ
Experiment: Subcellular distribution of AR in COS-1 cells (immunofluorescence staining, subcellular fractionation)
Assay type: cell-based
Description: COS-1 cells were seeded on two-well Lab Tek Chamber slides (Nalge) in DMEM containing 10% CD-FBS 18 h before transfection. DNA was transfected by using FuGENE 6 Transfection Reagent (Boehringer Mannheim). After transfection, cells were treated with either 10 nM DHT or vehicle for 12 h. Then cells were fixed with fixation solution (3% paraformaldehyde and 10% sucrose in PBS) for 20 min on ice, followed by permeabilization with methanol for 10 min on ice. Slides were washed and blocked with 2% BSA in PBS for 15 min at room temperature. Then the cells were stained with 1 μg/ml rabbit polyclonal anti-AR antibody (NH27) and 1 μg/ml mouse monoclonal anti-His antibody (Santa Cruz Biotechnology) sequentially at room temperature for 1 h each. After each first Ab incubation, cells were washed and incubated with TexRed-conjugated goat anti-rabbit IgG and FITC-conjugated goat anti-mouse IgG (ICN), respectively. Stained slides were washed and mounted (Vectashield; Vector Laboratories). Fluorescence images were photographed under 400-fold magnification with a confocal microscope.
To prepare cytosolic and nuclear fractions of cells, cell monolayers were harvested with ice-cold PBS and pelleted. Cold buffer A (10 mM HEPES-KOH/pH 7.9 at 4° C., 1.5 mM MgCl2, 10 mM KCl, 0.5 mM dithiothreitol, 0.2 mM PMSF) equal to 5 times cell volume was used to resuspend the cells. […]

B1: ARA67: AR N-terminal interacting protein of 585 amino acids (SEQ ID NO:1), matches PAT1; functions as a repressor of AR (protein)
chain: MAAVELEWIPETLYNTAISAVVDNYIRSRRDIRSLPENIQFDVYYKLYQQGRLCQLGSEFCELEVFAKVLRALDKRHLLHHCFQALMDHGVKVASVLAYSFSRRCSYIAESDAAVKEKAIQVGFVLGGFLSDAGWYSDAEKVFLSCLQLCTLHDEMLHWFRAVECCVRLLHVRNGNCKYHLGEETFKLAQTYMDKLSKHGQQANKAALYGELCALLFAKSHYDEAYKWCIEAMKEITAGLPVKVVVDVLRQASKACVVKREFKKAEQLIKHAVYLARDHFGSKHPKYSDTLLDYGFYLLNVDNICQSVAIYQAALDIRQSVFGGKNIHVATAHEDLAYSSYVHQYSSGKFDNALFHAERAIGIITHILPEDHLLLASSKRVKALILEEIAIDCHNKETEQRLLQEAHDLHLSSLQLAKKAFGEFNVQTAKHYGNLGRLYQSMRKFKEAEEMHIKAIQIKEQLLGQEDYEVALSVGHLASLYNYDMNQYENAEKLYLRSIAIGKKLFGEGYSGLEYDYRGLIKLYNSIGNYEKVFEYHNVLSNWNRLRDRQYSVTDALEDVSTSPQSTEEVVQSFLISQNVEGPSC
- AR level in nuclear fraction (Western blot, after DHT treatment): decreased
- nuclear translocation of AR (immunofluorescence staining, DHT treatment): block the nuclear translocation

From patent publication US20080050387A1, “Non-Androgen Dependent Roles for Androgen Receptor and Non-Androgen Related Inhibitors of Androgen Receptor” (priority 2003, published 2008)
